Measured values reported in the supplement of paper PMC9170038.

Tested on: MS2 coat protein
Test: apparent KD of MS2 coat protein; designed switch direction (-1 OFF switch, 1 ON switch): 1; higher = weaker reporter binding
Summary of the method: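 Designed RNA switches with common flanks were made on Illumina chips by stalled E. coli RNA polymerase. Titration with SNAP-549-labelled MS2 coat protein doubled from 0.7 or 1.5 nM up to 3 µM. Apparent KD is each design's median over clusters after curve-fitting normalised fluorescence.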

[1] = input ligand: microRNA oligo, concentration not stated
[2] = Eterna round: R95, input ligand: FMN 200 uM
[3] = Eterna round: R95, input ligand: microRNA oligo, concentration not stated
[4] = Eterna round: R95, input ligand: none

Row | Sequence | apparent KD of MS2 coat protein [1] [nM] | apparent KD of MS2 coat protein [2] [nM] | apparent KD of MS2 coat protein [3] [nM] | apparent KD of MS2 coat protein [4] [nM] | apparent KD of MS2 coat protein (input ligand: FMN 200 uM) [nM] | apparent KD of MS2 coat protein (input ligand: none) [nM]
1 | AUUAAACAUGAGGAUCACCCAUGUCAACAAAGUCGAGGAUAUGGGCAAAUAAAAUAAGAACCAGAAGGCGAAUAAU [salish99_ss1_r3_048] (Eterna round: R96, puzzle: Same State 1) | 193 | – | – | – | – | –
2 | AUUAAACAUGAGGAUCACCCAUGUCAACAAAGUCGAGGAUAUGGGCAAAUAAAAUAAGAACCAGAAGGCGAAUAAU [salish99_ss1_r3_048] (puzzle: Same State 1) | – | 31.6 | 357 | 555 | – | –
3 | AUUAAACAUGAGGAUCACCCAUGUCAACAAAGUCGAGGAUAUGGGCAAAUAAAAUAAUAACCAGAAGGCGAAUAAU [salish99_ss1_r3_065] (puzzle: Same State 1) | – | 37.8 | 353 | 295 | – | –
4 | AUUAAACAUGAGGAUCACCCAUGUCAACAAAGUCGAGGAUAUGGGCUAAUAAAAUAAGAACCAGAAGGCGAAUAAU [salish99_ss1_r3_062] (puzzle: Same State 1) | – | 26.8 | 185 | 211 | – | –
5 | AUUAAUAAUCGAGGAUAUCACGUCGAAUAGACGUGAGAAGGCGAUCAUAACAUGAGGAUCACCCAUGUAUUACAUGAAGUUAAU [SSNG1/4-B1] (Eterna round: R96, puzzle: Same State NG 1) | 20 | – | – | – | – | –
6 | AUUAAUUAAUUAAUACAUGAGGAUCACCCAUGUAAUAAGAUCUAGGAUAUCAGCUCGAUUAGAGCUGAGAAGGAGAUCACAUGU [SSNG3/17-A2] (Eterna round: R96, puzzle: Same State NG 3) | 36.3 | – | – | – | – | –
7 | AUUACUAACAUAGGAUAUCAUGCGAAAAUUGCGUGAGAAGGGUGGACGCUGUCAUUCUCGGAGGACAUGAGGAUCACCCAUGUC [SameState NG1 #71] (Eterna round: R96, puzzle: Same State NG 1) | 103 | – | – | – | 118 | 90.7
8 | AUUAGUUAUGCAGGAUAUGAUUAACAUGAGGAUCACCCAUGUGGUGUUGUGAGUAAGGAGAGUGAUCAGAAGGGCAUUUUUUUU [JMF's solution 67] (Eterna round: R96, puzzle: Same State NG 2) | 264 | – | – | – | 462 | 644
9 | AUUAUACAUGAGGAUCACCCAUGUCAACGUAGUCGAGGAUAUGGGCAGCCGUGAGGCGUACUAGAAGGCGAAGAGA [Mat - Same State 1 - Mod of JL - D8] (puzzle: Same State 1) | – | 84.3 | 235 | 385 | – | –
10 | AUUAUGAAUGCAGGAUAUGAUUAACAUGAGGAUCACCCAUGUGGUGUUGUGAGUAAGGAGAGUGAUCAGAAGGGCAUUUUUUUU [JMF's solution 25] (Eterna round: R96, puzzle: Same State NG 2) | 465 | – | – | – | – | –
11 | AUUAUUAAUAUAGGAUAUGUAAAACAUGAGGAUCACCCAUGUGAUAUCGUGAGUAAGGAGAGAGAACAGAAGGAUAUUUUUUUU [JMF's solution 3] (Eterna round: R96, puzzle: Same State NG 2) | 30.5 | – | – | – | 40.6 | 43.3
12 | AUUAUUAAUGCAGGAUAUGAUUAACAUGAGGAUCACCCAUGUGGUGUUGUGAGUAAGGAGAGUGAUCAGAAGGGCAUAUUUUUU [JMF's solution 9] (Eterna round: R96, puzzle: Same State NG 2) | 407 | – | – | – | 668 | 625
13 | AUUAUUAAUGCAGGAUAUGAUUAACAUGAGGAUCACCCAUGUGGUGUUGUGAGUAAGGAGAGUGAUCAGAAGGGCAUUUUUUAU [JMF's solution 15] (Eterna round: R96, puzzle: Same State NG 2) | 387 | – | – | – | 959 | 1190
14 | AUUAUUUAUGCAGGAUAUGAUUAACAUGAGGAUCACCCAUGUGGUGUUGUGAGUAAGGAGAGUGAUCAGAAGGGCAGUUUUUUU [JMF's solution 43] (Eterna round: R96, puzzle: Same State NG 2) | 231 | – | – | – | 568 | 406
15 | AUUAUUUAUGCAGGAUAUGAUUAACAUGAGGAUCACCCAUGUGGUGUUGUGAGUAAGGAGAGUGAUCAGAAGGGCAUCUUUUUU [JMF's solution 44] (Eterna round: R96, puzzle: Same State NG 2) | 227 | – | – | – | 610 | 414
16 | AUUCGUUUGAUAGGAUAUCACUUUACAUGAGGAUCACCCAUGUUCACCACGCUGGUCUCUUAUACUGAGAAGGAUCUUGAUGAC [JR_SSNG2_Sub009] (Eterna round: R96, puzzle: Same State NG 2) | 18.8 | – | – | – | 22.9 | 28
17 | AUUGCUAUCACAGGAUAUCAUGCGAAAAUUGCGUGAGAAGGGUGGACUCUGUCAUUCACGGAGGACAUGAGGAUCACCCAUGUC [SameState NG1 #81] (Eterna round: R96, puzzle: Same State NG 1) | 15.5 | – | – | – | 1020 | 32.3
18 | AUUGCUUUCGCAGGAUAUGAUGCGAAAAUUGCGUCAGAAGGGUGGAGUCUCUCAUUGCAAGAGGACAUGAGGAUCACCCAUGUC [SameState NG1 #86] (Eterna round: R96, puzzle: Same State NG 1) | 245 | – | – | – | 177 | 322
19 | AUUUAACAAGCUUUUUGCUCGUCUUAUAAACAUGAGGAUCACCCAUGUAAUAGCGUGAGAGUAAUUAAUUAAAUAAU [JMF 90] (puzzle: Sensor for hsa-mir-208a) | – | 14.6 | 46.9 | 13.3 | – | –
20 | AUUUAACAAGCUUUUUGCUCGUCUUAUAAACAUGAGGAUCACCCAUGUAAUAGCGUGAGAGUAAUUUAAUAAAUAAU [JMF 84] (puzzle: Sensor for hsa-mir-208a) | – | 13.7 | 51.1 | 13.4 | – | –
21 | AUUUAACAAGCUUUUUGCUCGUCUUAUAAACAUGAGGAUCACCCAUGUAAUAGCGUGAGAGUAAUUUAUUAAAUAAU [JMF 92] (puzzle: Sensor for hsa-mir-208a) | – | 15.6 | 41 | 15.6 | – | –
22 | AUUUAACAUGAGGAUCACCCAUGUCAACAAAGUCGAGGAUAUGGGCAAAUAAAAUAAGAACCAGAAGGCGAAUAAU [salish99_ss1_r3_070] (puzzle: Same State 1) | – | 40.5 | 283 | 368 | – | –
23 | AUUUGGUAACGAGGAUAUCGUUUUUGUUUUCUUCGAGAAGGCGUUAUUGUUUAUUUCUAUUGUUACAUGAGGAUCACCCAUGUU [JR_SSNG1_Sub056] (Eterna round: R96, puzzle: Same State NG 1) | 19 | – | – | – | 15.4 | 21.7
24 | AUUUUAAAACAUGAGGAUCACCCAUGUUACAAGCUUUUUUUUUUUUUUUUUUUUUGGUGAUCCUCAGCUCGUCUUAU [lrlee 1] (puzzle: Sensor for hsa-mir-208a version 2) | – | 1.51 | 5.16 | 0.902 | – | –
25 | AUUUUGAAUGCAGGAUAUGAUUAACAUGAGGAUCACCCAUGUGGUGUUGUGAGUAAGGAGAGUGAUCAGAAGGGCAUUUUUUUU [JMF's solution 96] (Eterna round: R96, puzzle: Same State NG 2) | 452 | – | – | – | 599 | 445
26 | AUUUUUAAUGCAGGAUAUGAUUAACAUGAGGAUCACCCAUGUGGUGUUGUGAGUAAGGAGAGUGAUCAGAAGGGCAAUUUUUUU [JMF's solution 78] (Eterna round: R96, puzzle: Same State NG 2) | 226 | – | – | – | 731 | 433
27 | AUUUUUAAUGCAGGAUAUGAUUAACAUGAGGAUCACCCAUGUGGUGUUGUGAGUAAGGAGAGUGAUCAGAAGGGCAUCUUUUCA [SS-NG2-LRO02] (Eterna round: R96, puzzle: Same State NG 2) | 216 | – | – | – | 679 | 372
28 | AUUUUUAAUGCAGGAUAUGAUUAACAUGAGGAUCACCCAUGUGGUGUUGUGAGUAAGGAGAGUGAUCAGAAGGGCAUUUUUAUU [JMF's solution 84] (Eterna round: R96, puzzle: Same State NG 2) | 450 | – | – | – | 1180 | 615
